{"source": "patent US20230235072A1", "about": "(DENALI THERAPEUTICS, published 2023)", "binders": {"B1": {"name": "Clone CH2C.3 (designed binder)", "chain": "PCPAPELLGGPSVFLFPPKPKDTLMISRTPEVTCVVVDPQTPPWEVKFNWYVDGVEVHNAKTKPREEEYYSNYRVVSVLTVLHQDWLNGKEYKCKVSNKALPAPIEKTISKAKGQPREPQVYTLPPSRDELTKNQVSLTCLVKGFYPSDIAVEWESNGQPENNYKTTPPVLDSDGSFFLYSKLTVDKSRWQQGNVFSCSVMHEALHNHYTQKSLSLSPGK"}, "B2": {"name": "Clone CH2C.17 (designed binder)", "chain": "B1 chain with P39M, Q40L, T41W, P43V, W44P, E68V, Y70H, S71R, N72P", "notes": "modified Fc; found by yeast display, tested on phage with holo-Tf"}, "B3": {"name": "Clone CH2C.2 (designed binder)", "chain": "B1 chain with Q40P, T41S"}, "B4": {"name": "Clone CH2C.4 (designed binder)", "chain": "B1 chain with P39F, Q40R, T41G, S71H, N72D"}, "B5": {"name": "Clone CH2C.1 (designed binder)", "chain": "B1 chain with S71T, N72Y"}, "B6": {"name": "Clone CH2C.7 (designed binder)", "chain": "B1 chain with Q40P, T41V", "notes": "found on phage"}, "B7": {"name": "Clone CH2C.22 (designed binder)", "chain": "B1 chain with P39D, Q40D, T41L, P42T, P43F, W44Q, E68L, Y70V, S71T, N72P", "notes": "as for B2"}, "B8": {"name": "Clone CH2C.8 (designed binder)", "chain": "B1 chain with Q40A, T41F, S71Q"}, "B9": {"name": "Clone CH2C.6 (designed binder)", "chain": "B1 chain with Q40K, T41M, S71T, N72Y"}, "B10": {"name": "Clone CH2C.5 (designed binder)", "chain": "B1 chain with P42V"}, "B11": {"name": "Clone CH3B.1 (designed binder)", "chain": "PCPAPELLGGPSVFLFPPKPKDTLMISRTPEVTCVVVDVSHEDPEVKFNWYVDGVEVHNAKTKPREEQYNSTYRVVSVLTVLHQDWLNGKEYKCKVSNKALPAPIEKTISKAKGQPRFDYVTTLPPSRDELTKNQVSLTCLVKGFYPSDIAVEWESNGQPENNYKTTPPVLDSDGSFFLYSKLTVDKSRWQQGNVFSCSVMHEALHNHYGFHDLSLSPGK"}, "B12": {"name": "Clone CH3B.3 (designed binder)", "chain": "B11 chain with D119E"}, "B13": {"name": "Clone CH3B.11 (designed binder)", "chain": "B11 chain with D119G, Y120L"}, "B14": {"name": "Clone CH3B.9 (designed binder)", "chain": "B11 chain with D119G, Y120M"}, "B15": {"name": "Clone CH3B.7 (designed binder)", "chain": "B11 chain with Y120I"}, "B16": {"name": "Clone CH3B.5 (designed binder)", "chain": "B11 chain with D119E, Y120L"}, "B17": {"name": "Clone CH3B.12 (designed binder)", "chain": "B11 chain with H212S"}, "B18": {"name": "Clone CH3B.4 (designed binder)", "chain": "B11 chain with D119E, Y120M"}, "B19": {"name": "Clone CH3B.6 (designed binder)", "chain": "B11 chain with D119E, Y120I"}, "B20": {"name": "Clone CH3B.2 (designed binder)", "chain": "B11 chain with Y120M"}, "B21": {"name": "Clone CH3C.35.N390.1 (designed binder)", "chain": "PCPAPELLGGPSVFLFPPKPKDTLMISRTPEVTCVVVDVSHEDPEVKFNWYVDGVEVHNAKTKPREEQYNSTYRVVSVLTVLHQDWLNGKEYKCKVSNKALPAPIEKTISKAKGQPREPQVYTLPPSRDELTKNQVSLTCLVKGFYPSDIAVEWESYGTEWSNYKTTPPVLDSDGSFFLYSKLTVSKSEWQQGFVFSCSVMHEALHNHYTQKSLSLSPGK"}, "B22": {"name": "Clone CH3C.35.23.6.1 (designed binder)", "chain": "B21 chain with Y157F, S162V, S188E"}, "B23": {"name": "Clone CH3C.35.23.3.1 (designed binder)", "chain": "B21 chain with S162V, S188E"}, "B24": {"name": "Clone CH3C.35.S413 (designed binder)", "chain": "B21 chain with N163S"}, "B25": {"name": "Clone CH3C.35.23.1.1 (designed binder)", "chain": "B21 chain with Y157F, S188E"}, "B26": {"name": "Clone CH3C.35.20.1.1 (designed binder)", "chain": "B21 chain with Y157F, N163S, S188E"}, "B27": {"name": "Clone CH3C.35.23.2.1 (designed binder)", "chain": "B21 chain with S162A"}}, "key": {"[1]": {"target": "T1, cynomolgus transferrin receptor (TfR) ectodomain (ECD) (cynomolgus, UniProt Q5RDH6 121-760 (Pongo abelii entry), biotinylated where captured on streptavidin)", "T1 construct": "also called cyno TfR; cynoTfR", "T1 chain": "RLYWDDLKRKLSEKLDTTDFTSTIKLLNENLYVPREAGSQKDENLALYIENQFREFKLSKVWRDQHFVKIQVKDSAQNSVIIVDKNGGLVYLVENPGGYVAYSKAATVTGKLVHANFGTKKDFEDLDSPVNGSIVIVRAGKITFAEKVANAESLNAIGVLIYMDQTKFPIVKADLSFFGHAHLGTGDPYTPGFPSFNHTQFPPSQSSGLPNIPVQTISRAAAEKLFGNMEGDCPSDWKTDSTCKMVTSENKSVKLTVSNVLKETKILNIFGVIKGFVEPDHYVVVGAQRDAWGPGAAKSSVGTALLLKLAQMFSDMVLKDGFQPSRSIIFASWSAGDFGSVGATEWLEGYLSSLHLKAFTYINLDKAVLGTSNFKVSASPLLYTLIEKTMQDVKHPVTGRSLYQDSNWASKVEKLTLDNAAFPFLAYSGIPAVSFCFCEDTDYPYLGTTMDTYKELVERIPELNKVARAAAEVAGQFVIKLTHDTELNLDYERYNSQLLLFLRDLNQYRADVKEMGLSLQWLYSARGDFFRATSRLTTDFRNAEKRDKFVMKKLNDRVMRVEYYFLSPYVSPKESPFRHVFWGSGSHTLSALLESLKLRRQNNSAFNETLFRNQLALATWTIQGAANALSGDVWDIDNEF", "experiment": "ELISA, Fc-Fab fusion titrated on plate-coated cyno TfR; OD650", "excerpt": "(§1) The CH2C variants were expressed as Fc fusions to Fab fragments by cloning into an expression vector containing an anti-BACE1 benchmark variable region sequence."}, "[2]": {"target": "T2, human transferrin receptor (TfR) ectodomain (ECD) (human, UniProt P02786 121-760, biotinylated where captured on streptavidin)", "T2 construct": "also called human TfR; huTfR", "experiment": "ELISA, Fc-Fab fusion titrated on plate-coated human TfR; OD650", "excerpt": "as §1"}, "streptavidin": {"target": "streptavidin (Natural streptavidin is a homotetramer; one chain is given.)", "experiment": "phage ELISA, phage dilution series on plate-coated streptavidin; OD650"}, "[3]": {"target": "T2, human transferrin receptor (TfR) …", "experiment": "phage ELISA, phage dilution series on plate-coated human TfR without and with holo-Tf; OD650", "excerpt": "as §1"}, "[4]": {"target": "T1, cynomolgus transferrin receptor (TfR) …", "experiment": "ELISA, Fc-Fab fusion (dimer format) titrated on plate-coated cyno TfR; OD650"}, "[5]": {"target": "T2, human transferrin receptor (TfR) …", "experiment": "ELISA, Fc-Fab fusion (dimer format) titrated on plate-coated human TfR; OD650", "experimental": "Fc regions comprising the CH3B clone sequences were fused to Fab fragments and were assayed in a dimer format."}, "[6]": {"target": "T2, human transferrin receptor (TfR) …", "experiment": "phage ELISA, phage dilution series on plate-coated human TfR without and with holo-Tf; OD650", "remark": "listed apart in the source"}, "[7]": {"target": "T2, human transferrin receptor (TfR) …", "experiment": "SPR (Biacore), same protocol as previously described; form of human TfR not stated"}}, "note": "Changes are numbered by the printed parent chain."}
{"binder": "B1", "values": [{"measurement": "binding result", "setting": "[1]", "result": "binds"}, {"measurement": "binding result", "setting": "[2]", "result": "binds"}]}
{"binder": "B2", "values": [{"measurement": "binding result", "setting": "streptavidin", "result": "no binding (tested: dilution 1 (least diluted phage))"}, {"measurement": "binding result", "setting": "[3]", "result": "binds"}]}
{"binder": "B3", "values": [{"measurement": "binding result", "setting": "[1]", "result": "binds"}, {"measurement": "binding result", "setting": "[2]", "result": "binds"}]}
{"binder": "B4", "values": [{"measurement": "EC50 (read off the curve)", "setting": "[1]", "result": "~8", "unit": "nM"}]}
{"binder": "B5", "values": [{"measurement": "EC50 (read off the curve)", "setting": "[1]", "result": "~8", "unit": "nM"}, {"measurement": "binding result", "setting": "[2]", "result": "binds"}]}
{"binder": "B6", "values": [{"measurement": "binding result", "setting": "[1]", "result": "binds"}, {"measurement": "binding result", "setting": "[2]", "result": "binds"}]}
{"binder": "B7", "values": [{"measurement": "binding result", "setting": "streptavidin", "result": "no binding (tested: dilution 1 (least diluted phage))"}, {"measurement": "binding result", "setting": "[3]", "result": "binds"}]}
{"binder": "B8", "values": [{"measurement": "binding result", "setting": "[1]", "result": "binds"}, {"measurement": "binding result", "setting": "[2]", "result": "no binding (tested: 1000 nM)"}]}
{"binder": "B9", "values": [{"measurement": "binding result", "setting": "[1]", "result": "binds"}, {"measurement": "binding result", "setting": "[2]", "result": "binds"}]}
{"binder": "B10", "values": [{"measurement": "binding result", "setting": "[1]", "result": "binds"}, {"measurement": "binding result", "setting": "[2]", "result": "binds"}]}
{"binder": "B11", "values": [{"measurement": "EC50 (read off the curve)", "setting": "[4]", "result": "~3", "unit": "nM"}, {"measurement": "EC50 (read off the curve)", "setting": "[5]", "result": "~4", "unit": "nM"}]}
{"binder": "B12", "values": [{"measurement": "binding result", "setting": "[4]", "result": "binds"}, {"measurement": "binding result", "setting": "[5]", "result": "binds"}]}
{"binder": "B13", "values": [{"measurement": "binding result", "setting": "[6]", "result": "binds"}]}
{"binder": "B14", "values": [{"measurement": "binding result", "setting": "[4]", "result": "binds"}, {"measurement": "binding result", "setting": "[5]", "result": "binds"}]}
{"binder": "B15", "values": [{"measurement": "binding result", "setting": "[4]", "result": "binds"}, {"measurement": "binding result", "setting": "[5]", "result": "binds"}]}
{"binder": "B16", "values": [{"measurement": "binding result", "setting": "[4]", "result": "binds"}, {"measurement": "binding result", "setting": "[5]", "result": "binds"}]}
{"binder": "B17", "values": [{"measurement": "binding result", "setting": "[6]", "result": "binds"}]}
{"binder": "B18", "values": [{"measurement": "binding result", "setting": "[4]", "result": "binds"}, {"measurement": "binding result", "setting": "[5]", "result": "binds"}]}
{"binder": "B19", "values": [{"measurement": "binding result", "setting": "[4]", "result": "binds"}, {"measurement": "binding result", "setting": "[5]", "result": "binds"}]}
{"binder": "B20", "values": [{"measurement": "EC50 (read off the curve)", "setting": "[4]", "result": "~2", "unit": "nM"}, {"measurement": "EC50 (read off the curve)", "setting": "[5]", "result": "~4", "unit": "nM"}]}
{"binder": "B21", "values": [{"measurement": "Kd", "setting": "[7]", "result": 2000, "unit": "nM"}]}
{"binder": "B22", "values": [{"measurement": "Kd", "setting": "[7]", "result": 2100, "unit": "nM"}]}
{"binder": "B23", "values": [{"measurement": "Kd", "setting": "[7]", "result": 1900, "unit": "nM"}]}
{"binder": "B24", "values": [{"measurement": "Kd", "setting": "[7]", "result": 1700, "unit": "nM"}]}
{"binder": "B25", "values": [{"measurement": "Kd", "setting": "[7]", "result": 750, "unit": "nM"}]}
{"binder": "B26", "values": [{"measurement": "Kd", "setting": "[7]", "result": 620, "unit": "nM"}]}
{"binder": "B27", "values": [{"measurement": "Kd", "setting": "[7]", "result": 690, "unit": "nM"}]}
